The values that follow come from patent US20190269666A1 (Eli Lilly, published 2019).

Experiment [1] addresses T1, cell surface PD-L1 on MDA-MB231 cells (human, UniProt Q9NZQ7 19-290).
T1 construct: Endogenous PD-L1 of the human cell line; also called cell surface expressed human PD-L1; MDA-MB 231 cells (PD-L1-positive human breast adenocarcinoma cell line)
As to the kind of experiment: flow cytometry on MDA-MB231 cells, biotinylated antibody, streptavidin-PE detection. The procedure: Plate are centrifuged at 1200 rpm for 5 minutes and supernatant removed. 100 μL of antibody-biotin (serially diluted by 1:4 starting from 10 μg/ml) is added. A total of 6 serial dilutions are evaluated. After incubation at 4° C. for 30 minutes, cells are washed twice with DPBS. 100 μL of detection buffer containing 5 μL streptavidin-PE is added. After incubation at 4° C. for 30 more minutes, plate is centrifuged and washed twice with DPBS. Cells are re-suspended in 200 μL DPBS for FACS analysis.
In general terms: In flow cytometry, cells or beads pass a laser one at a time.

Experiment [2] deals with T2, biotinylated PD-L1-Fc fusion protein (Homo sapiens (Human), UniProt Q9NZQ7 19-238, limits assumed, biotinylated (sites not given)).
T2 construct: not shown: Fc part
T2 sequence (Q9NZQ7 19-238 limits assumed): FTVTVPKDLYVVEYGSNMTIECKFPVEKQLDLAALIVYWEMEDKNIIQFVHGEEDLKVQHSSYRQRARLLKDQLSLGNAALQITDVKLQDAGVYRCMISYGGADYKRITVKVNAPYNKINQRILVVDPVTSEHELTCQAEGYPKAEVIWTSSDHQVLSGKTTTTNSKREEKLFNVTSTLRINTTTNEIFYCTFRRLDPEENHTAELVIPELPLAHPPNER
Nature of the experiment: blocking ELISA: antibody premixed with biotinylated PD-L1-Fc, plate coated with B7-1-Fc (1 ug/ml, R&D Systems).

Experiment [3] addresses T3, human PD-L1-Fc fusion protein (human, UniProt Q9NZQ7 19-239).
T3 construct: treated as one molecule; also called soluble human PD-L1-Fc fusion protein; human PD-L1-Fc (R&D Systems); not shown: Fc part
Nature of the experiment: ELISA, plate coated with human PD-L1-Fc (R&D Systems), anti-human IgG F(ab')2-HRP detection. As for the experimental part:
Wells are blocked for 2 hours with blocking buffer (PBS containing 5% nonfat dry milk). Wells are washed three times with PBS containing 0.1% TWEEN®-20. […] After washing, the plate is incubated with 100 μL of goat anti-human IgG F(ab′)2-HRP conjugate (Jackson Immuno Research) at room temperature for 1 hour. The plates are washed and then incubated with 100 μL of 3,3′, 5,5′-tetra-methylbenzidine. The absorbance at 450 nm is read on a microplate reader. The half maximal effective concentration (EC₅₀) is calculated using GraphPad Prism 6 software.
Background: An ELISA detects its analyte on a solid surface through an enzyme-linked reagent.

Experiment [4] deals with T2, biotinylated PD-L1-Fc fusion protein. As to the kind of experiment: blocking ELISA: antibody premixed with biotinylated PD-L1-Fc (100 ng/well), plate coated with PD-1-Fc (1 ug/ml).
For experiment [5], the target named is T4, cynomolgus monkey PD-L1-Fc fusion protein (cynomolgus monkey).
T4 construct: Soluble analyte in SPR; also called Cyno PD-L1
Nature of the experiment: SPR (Biacore T200), antibody immobilized, PD-L1-Fc as analyte, 37 C, 1:1 model. As for the experimental part: (§1) Immobilization of antibodies of the present invention as ligand on to sensor chip surface is performed at 25° C. […] The analysis is performed at 37° C. The contact time for each sample is 180 seconds at 30 μL/minute. The dissociation time was 240-1500 seconds. The immobilized surface is regenerated for 18 seconds with 0.95 M NaCl/25 mM NaOH at 30 μL/minute, and then stabilized for 30 seconds. Binding kinetics are analyzed using the Biacore T200 Evaluation software (Version 3.0). Data are referenced to a blank flow cell, and the data are fit to a 1:1 binding model.

Experiment [6] deals with T3, human PD-L1-Fc fusion protein. Described as above. The procedure:
as §1

T3 sequence (Q9NZQ7 19-239 limits assumed): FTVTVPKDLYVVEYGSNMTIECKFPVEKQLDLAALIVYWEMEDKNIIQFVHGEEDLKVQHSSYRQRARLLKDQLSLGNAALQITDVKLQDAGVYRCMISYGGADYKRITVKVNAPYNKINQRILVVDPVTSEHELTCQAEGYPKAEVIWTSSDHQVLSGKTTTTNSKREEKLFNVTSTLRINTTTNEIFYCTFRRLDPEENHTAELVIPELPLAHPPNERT
T1 sequence (Q9NZQ7 19-290 limits assumed): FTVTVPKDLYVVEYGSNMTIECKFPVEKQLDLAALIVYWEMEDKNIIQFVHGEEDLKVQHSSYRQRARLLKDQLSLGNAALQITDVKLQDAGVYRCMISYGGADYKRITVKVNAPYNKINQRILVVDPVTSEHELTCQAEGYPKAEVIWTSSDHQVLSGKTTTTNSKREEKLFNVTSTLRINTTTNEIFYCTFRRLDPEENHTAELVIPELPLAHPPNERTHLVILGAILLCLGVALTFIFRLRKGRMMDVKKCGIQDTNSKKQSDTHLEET

B1: LY3300054 (antibody, human IgG1, lambda, V domains shown)
VH: QVQLVQSGAEVKKPGSSVKVSCKASGGTFSSYAISWVRQAPGQGLEWMGGIIPIFGTANYAQKFQGRVTITADKSTSTAYMELSSLRSEDTAVYYCARSPDYSPYYYYGMDVWGQGTTVTVSS
VL: QSVLTQPPSASGTPGQRVTISCSGSSSNIGSNTVNWYQQLPGTAPKLLIYGNSNRPSGVPDRFSGSKSGTSASLAISGLQSEDEADYYCQSYDSSLSGSVFGGGIKLTVLG
notes: Biotinylated antibody was used in the flow cytometry assay; also called anti-PD-L1 antibody
As to B1, the values for the EC50 in experiment [1] and in experiment [3] were 0.14 nM and 0.11 nM, respectively. Moreover, the half-inhibitory concentration (IC50) in experiment [2] was determined as 2.4 nM; in experiment [4], 0.95 nM. The equilibrium dissociation constant (Kd) in experiment [5] is 0.122 nM; in experiment [6] it was 0.082 nM. Also, the off-rate constant (koff) turned out to be 0.000184 s⁻¹ in experiment [5] and 0.000114 s⁻¹ in experiment [6]. In addition, the kon in experiment [5] is 1.51e+06 M⁻¹ s⁻¹; in experiment [6], 1.4e+06 M⁻¹ s⁻¹.

By EC50 is commonly meant the midpoint of the concentration-response curve. A word on the IC50: it is the concentration that inhibits the measured activity by half. What is called Kd is the concentration at which binding is half-saturated. The term koff denotes the first-order rate constant of dissociation. The term kon denotes the second-order rate constant of association.
